Experimental data as given in US20250361274A1, “PEPTIDE AND PEPTIDE-CONTAINING AGENT” (PEPTIDREAM INC., priority 2022, published 2025).
Square brackets hold non-standard residues; d marks the D form. Ends that are not written are not given here. 3Pal(6-Ph) = N[C@@H](Cc1ccc(-c2ccccc2)nc1)C(=O)O; Phe(4-COOH) = N[C@@H](Cc1ccc(C(=O)O)cc1)C(=O)O; NMePhe(4-Me) = CN[C@@H](Cc1ccc(C)cc1)C(=O)O; Bip = N[C@@H](Cc1ccc(-c2ccccc2)cc1)C(=O)O; Phe(4-F) = N[C@@H](Cc1ccc(F)cc1)C(=O)O; cisHyp = O=C(O)[C@@H]1C[C@H](O)CN1; NMeF = CN[C@@H](Cc1ccccc1)C(=O)O; Aad = N[C@@H](CCCC(=O)O)C(=O)O; Cha = N[C@@H](CC1CCCCC1)C(=O)O; Abu = CC[C@H](N)C(=O)O; βAla = NCCC(=O)O

Assays:
BMP4 = target: T1, BMP4 (Homo sapiens, UniProt P12644); test: BMP4 signal transduction inhibitory activity: SMAD1 phosphorylation by BMP4 stimulus, AlphaLISA SureFire, A549 cells; type: cell-based; conditions: BMP4 0.2 nM stimulus; peptide conc. in assay 0.2, 2, 20 nM
T1 sequence (P12644 293-408): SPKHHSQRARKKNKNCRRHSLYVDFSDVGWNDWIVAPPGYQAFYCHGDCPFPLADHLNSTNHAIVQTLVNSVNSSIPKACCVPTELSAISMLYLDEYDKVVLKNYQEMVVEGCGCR

BMP7 = target: T2, BMP7 (Homo sapiens, UniProt P18075); test: BMP7 signal transduction inhibitory activity: SMAD1 phosphorylation by BMP7 stimulus, A549 cells; type: cell-based; conditions: BMP7 10 nM stimulus; peptide conc. in assay 1, 10, 100 nM
T2 sequence (P18075 293-431): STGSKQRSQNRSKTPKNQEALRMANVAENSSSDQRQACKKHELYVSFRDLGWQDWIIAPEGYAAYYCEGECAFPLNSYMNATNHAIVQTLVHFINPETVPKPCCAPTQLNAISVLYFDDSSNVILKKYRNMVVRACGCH
In short: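 Cell line A549; stimulus BMP7 10 nM; endpoint pSMAD1. Peptide doses: three concentrations (1–1,000 nM range) or 8 × 1/3 dilutions from 100/1,000 nM.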

Row | Substance | aLISA BMP4 (0.2 nM) % inh (BMP4) | aLISA BMP7 (10 nM) % inh (BMP7)
1 | 393 (FG[NMePhe(4-Me)]G[Bip]GDD[Cha]A[NMeF]LHCG-NH2; not fully specified) [compound 393] | A (showed less than 30% of inhibitory activity in 2 nM-peptide-addition zone and showed 30% or more of inhibitory activity in 20 nM-addition zone) | D (showed less than 30% of inhibitory activity in 10 nM-addition zone and showed 30% or more of inhibitory activity in 100 nM-addition zone)
2 | 394 (FG[NMeF]G[Bip]GDD[Cha]A[NMePhe(4-Me)]LHCG-NH2; not fully specified) [compound 394] | ND (the inhibitory activity was less than 30% at the maximum concentration evaluated) | D (showed less than 30% of inhibitory activity in 10 nM-addition zone and showed 30% or more of inhibitory activity in 100 nM-addition zone)
3 | 395 ([Phe(4-F)]G[NMePhe(4-Me)]G[Bip]GDD[Cha]A[NMeF]LHCG-NH2; not fully specified) [compound 395] | A (showed less than 30% of inhibitory activity in 2 nM-peptide-addition zone and showed 30% or more of inhibitory activity in 20 nM-addition zone) | D (showed less than 30% of inhibitory activity in 10 nM-addition zone and showed 30% or more of inhibitory activity in 100 nM-addition zone)
4 | 396 ([Phe(4-F)]G[NMeF]G[Bip]GDD[Cha]A[NMePhe(4-Me)]LHCG-NH2; not fully specified) [compound 396] | A (showed less than 30% of inhibitory activity in 2 nM-peptide-addition zone and showed 30% or more of inhibitory activity in 20 nM-addition zone) | C (showed less than 30% of inhibitory activity in a zone to which the peptide was added in an amount of 1 nM and showed 30% or more of inhibitory activity in 10 nM-addition zone)
5 | 397 (FG[NMePhe(4-Me)]G[Bip]GDD[Cha]A[NMePhe(4-Me)]LHCG-NH2; not fully specified) [compound 397] | ND (the inhibitory activity was less than 30% at the maximum concentration evaluated) | D (showed less than 30% of inhibitory activity in 10 nM-addition zone and showed 30% or more of inhibitory activity in 100 nM-addition zone)
6 | 398 ([Phe(4-F)]G[NMePhe(4-Me)]G[Bip]GDD[Cha]A[NMePhe(4-Me)]LHCG-NH2; not fully specified) [compound 398] | A (showed less than 30% of inhibitory activity in 2 nM-peptide-addition zone and showed 30% or more of inhibitory activity in 20 nM-addition zone) | D (showed less than 30% of inhibitory activity in 10 nM-addition zone and showed 30% or more of inhibitory activity in 100 nM-addition zone)
7 | 399 (FG[NMeF]G[Bip]GDE[Cha]Q[NMeF]L[Abu]CG-NH2; not fully specified) [compound 399] | ND (the inhibitory activity was less than 30% at the maximum concentration evaluated) | C (showed less than 30% of inhibitory activity in a zone to which the peptide was added in an amount of 1 nM and showed 30% or more of inhibitory activity in 10 nM-addition zone)
8 | 400 (FG[NMeF]G[Bip]GDE[Cha]Q[NMeF]L[cisHyp]CG-NH2) [compound 400] | ND (the inhibitory activity was less than 30% at the maximum concentration evaluated) | C (showed less than 30% of inhibitory activity in a zone to which the peptide was added in an amount of 1 nM and showed 30% or more of inhibitory activity in 10 nM-addition zone)
9 | 401 (FG[NMeF]G[Bip]GDE[Cha][Aad][NMeF]L[Phe(4-COOH)]CG-NH2; not fully specified) [compound 401] | ND (the inhibitory activity was less than 30% at the maximum concentration evaluated) | C (showed less than 30% of inhibitory activity in a zone to which the peptide was added in an amount of 1 nM and showed 30% or more of inhibitory activity in 10 nM-addition zone)
10 | 402 (FG[NMeF]G[Bip]GDE[Cha][Aad][NMeF]L[Abu]CG-NH2; not fully specified) [compound 402] | ND (the inhibitory activity was less than 30% at the maximum concentration evaluated) | C (showed less than 30% of inhibitory activity in a zone to which the peptide was added in an amount of 1 nM and showed 30% or more of inhibitory activity in 10 nM-addition zone)
11 | 403 (FG[NMeF]G[Bip]GDE[Cha][Aad][NMeF]L[cisHyp]CG-NH2; not fully specified) [compound 403] | ND (the inhibitory activity was less than 30% at the maximum concentration evaluated) | C (showed less than 30% of inhibitory activity in a zone to which the peptide was added in an amount of 1 nM and showed 30% or more of inhibitory activity in 10 nM-addition zone)
12 | 404 (FG[NMeF]G[Bip]GDE[Cha]Q[NMeF]L[Phe(4-COOH)]C-NH2; not fully specified) [compound 404] | ND (the inhibitory activity was less than 30% at the maximum concentration evaluated) | C (showed less than 30% of inhibitory activity in a zone to which the peptide was added in an amount of 1 nM and showed 30% or more of inhibitory activity in 10 nM-addition zone)
13 | 405 (FG[NMeF]G[Bip]GDE[Cha]Q[NMeF]L[Phe(4-COOH)]CG; not fully specified) [compound 405] | ND (the inhibitory activity was less than 30% at the maximum concentration evaluated) | D (showed less than 30% of inhibitory activity in 10 nM-addition zone and showed 30% or more of inhibitory activity in 100 nM-addition zone)
14 | 406 (FG[NMeF]G[Bip]GDE[Cha]Q[NMeF]L[Phe(4-COOH)]C[βAla]) [compound 406] | ND (the inhibitory activity was less than 30% at the maximum concentration evaluated) | D (showed less than 30% of inhibitory activity in 10 nM-addition zone and showed 30% or more of inhibitory activity in 100 nM-addition zone)
15 | 407 (FG[NMeF]G[Bip]GDE[Cha]Q[NMeF]L[Phe(4-COOH)]C[βAla][dE]) [compound 407] | ND (the inhibitory activity was less than 30% at the maximum concentration evaluated) | C (showed less than 30% of inhibitory activity in a zone to which the peptide was added in an amount of 1 nM and showed 30% or more of inhibitory activity in 10 nM-addition zone)
16 | 408 (FG[NMeF]G[Bip]GDE[Cha][Aad][NMeF]L[Phe(4-COOH)]C-NH2) [compound 408] | ND (the inhibitory activity was less than 30% at the maximum concentration evaluated) | C (showed less than 30% of inhibitory activity in a zone to which the peptide was added in an amount of 1 nM and showed 30% or more of inhibitory activity in 10 nM-addition zone)
17 | 409 (FG[NMeF]G[Bip]GDE[Cha][Aad][NMeF]L[Phe(4-COOH)]C[βAla][dE]) [compound 409] | ND (the inhibitory activity was less than 30% at the maximum concentration evaluated) | D (showed less than 30% of inhibitory activity in 10 nM-addition zone and showed 30% or more of inhibitory activity in 100 nM-addition zone)
18 | 410 (FG[NMeF]G[3Pal(6-Ph)]GDE[Cha][Aad][NMeF]L[Phe(4-COOH)]C-NH2; not fully specified) [compound 410] | ND (the inhibitory activity was less than 30% at the maximum concentration evaluated) | D (showed less than 30% of inhibitory activity in 10 nM-addition zone and showed 30% or more of inhibitory activity in 100 nM-addition zone)
19 | 411 (FG[NMeF]G[3Pal(6-Ph)]GDE[Cha][Aad][NMeF]L[Phe(4-COOH)]C[βAla][dE]) [compound 411] | ND (the inhibitory activity was less than 30% at the maximum concentration evaluated) | D (showed less than 30% of inhibitory activity in 10 nM-addition zone and showed 30% or more of inhibitory activity in 100 nM-addition zone)
20 | 412 ([Phe(4-F)]G[NMeF]G[3Pal(6-Ph)]GDE[Cha][Aad][NMePhe(4-Me)]L[Phe(4-COOH)]C-NH2; not fully specified) [compound 412] | ND (the inhibitory activity was less than 30% at the maximum concentration evaluated) | D (showed less than 30% of inhibitory activity in 10 nM-addition zone and showed 30% or more of inhibitory activity in 100 nM-addition zone)
21 | 413 ([Phe(4-F)]G[NMeF]G[3Pal(6-Ph)]GDE[Cha][Aad][NMePhe(4-Me)]L[Phe(4-COOH)]C[βAla][dE]) [compound 413] | ND (the inhibitory activity was less than 30% at the maximum concentration evaluated) | D (showed less than 30% of inhibitory activity in 10 nM-addition zone and showed 30% or more of inhibitory activity in 100 nM-addition zone)
22 | 414 (FG[NMeF]G[3Pal(6-Ph)]GDE[Cha][Aad][NMeF]L[cisHyp]C-NH2; not fully specified) [compound 414] | ND (the inhibitory activity was less than 30% at the maximum concentration evaluated) | D (showed less than 30% of inhibitory activity in 10 nM-addition zone and showed 30% or more of inhibitory activity in 100 nM-addition zone)
